Measurements from paper PMC5330840.

Biological target: Entamoeba histolytica ADP-forming acetyl-CoA synthetase, wild type (Entamoeba histolytica)
Assay: SEC

- stoichiometry N: 2
Substance: Entamoeba histolytica ADP-forming acetyl-CoA synthetase, wild type (enzyme)
